Results on two substances are retold here after paper PMC5291247.

The target in experiment [1] is Vps75 from which native cysteine residues had been removed (yeast (S. cerevisiae in the introduction)) (UniProt P53853). Briefly: cross-linking; cross-linking analysis of Vps75 with Asf1 and H3-H4, SDS-PAGE (Supplementary Figure S4).
The target is the same in experiment [2]. As to the kind of experiment: SEC-MALS + cross-linking; partial DTSSP cross-linking at 200 mM NaCl, 20 mM HEPES pH 7.5 (Vps75 alone, or Vps75 dimers and H3-H4 dimers 1:1, 10 uM); SEC-MALS on Superdex 200 10/300 GL at 400 mM NaCl, 20 mM HEPES-KOH pH 7.5; fractions on SDS-PAGE with and without DTT.
The target is the same in experiment [3]. Briefly: cross-linking; Vps75 titrated with H3-H4 at 200 mM NaCl, 20 mM HEPES pH 7.5; 30 min room temperature, 2 mM BS2G for 1 h, SDS-PAGE.

Where “and” joins values, the source holds several entries; their conditions need not be identical. Identical values can stand only once.

Regarding “histones H3–H4 from which native cysteine residues had been removed (from UniProt P84233 1-136; P62799 1-103) (complex)”, the stoichiometry N (Vps75 monomers per H3-H4 dimer) in experiment [1] stood at 2.

In the case of “Vps75 from which native cysteine residues had been removed (from UniProt P53853 1-264) (natural protein)”, the stoichiometry N was 4 and 2 in experiment [2]; 4 in experiment [3].
